According to the supplement of paper PMC10567573:

B1: NEK8 (parent)
chain: VTIKHVACGDFFTACLTDRGIIMT
B2: ZNF511 (parent)
chain: AAPFRFVARPVRFPREHQFFEDGD

Variants of: B1
Test: protein stability index of a GFP-peptide fusion (GPS, HEK-293T) (PSI 1-6); higher = more stable
Conditions: c terminus: a fixed tail appended
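Also: lentivirally expressed fusions sorted by FACS into six bins by GFP to DsRed ratio, PSI derived from sequencing read proportions per bin multiplied by bin number.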

| Variant | protein stability index |
| --- | --- |
| T24D | 3.14 |
| T24L | 4.18 |
| T24H | 1.84 |
| T24G | 3.47 |
| T24I | 3.19 |
| T24N | 2.41 |
| T24A | 2.87 |
| T24R | 2.45 |
| T24F | 2.64 |
| T24S | 2.33 |
| T24K | 2.93 |
| T24E | 3.11 |
| T24Y | 2.3 |
| T24C | 2.87 |
| T24V | 2.81 |
| M23H | 2.61 |
| M23N | 2.3 |
| M23Y | 3.28 |
| M23V | 2.73 |
| M23E | 2.81 |
| M23C | 2.67 |
| M23T | 1.89 |
| M23D | 3.49 |
| M23K | 1.91 |
| M23S | 2.56 |
| M23A | 1.6 |
| M23R | 1.41 |

| Variant | protein stability index |
| --- | --- |
| M23I | 2.77 |
| M23G | 3.62 |
| M23P | 2.9 |
| M23L | 3.85 |
| M23Q | 1.47 |
| I21G | 3.21 |
| I21V | 3.14 |
| I21W | 2.31 |
| I21F | 2.9 |
| I21P | 2.25 |
| I21L | 2.25 |
| I21Q | 2.92 |
| I21T | 2.48 |
| I21R | 2.49 |
| I21D | 2.13 |
| I21N | 2.87 |
| I21K | 2.78 |
| I21M | 2.95 |
| I21E | 3.51 |
| I21S | 2.5 |
| I21A | 1.79 |
| I21C | 2.7 |
| I21H | 2.36 |
| G20Q | 2.06 |
| G20D | 2.04 |
| G20M | 3.22 |
| G20S | 2.84 |

| Variant | protein stability index |
| --- | --- |
| G20H | 3.22 |
| G20T | 1.48 |
| G20Y | 2.3 |
| G20K | 2.35 |
| G20C | 2.94 |
| G20N | 2.75 |
| G20W | 2.57 |
| G20P | 3.42 |
| G20I | 2.82 |
| G20F | 2.21 |
| G20V | 1.72 |
| G20L | 2.91 |
| I22V | 2.46 |
| I22F | 4.9 |
| I22A | 2.38 |
| I22N | 3.67 |
| I22D | 3.93 |
| I22K | 3.62 |
| I22W | 4.62 |
| I22Y | 2.39 |
| I22Q | 3.88 |
| I22C | 3.72 |
| I22E | 3.75 |
| I22L | 4.46 |
| I22G | 2.98 |
| I22P | 2.67 |

Variants of: B2
Test: as above
Conditions: c terminus: a fixed tail appended

| Variant | protein stability index |
| --- | --- |
| E16C | 1.93 |
| E16D | 1.98 |
| E16M | 1.57 |
| G23T | 2.5 |
| G23W | 2.02 |
| F6T | 4.03 |
| F6A | 4.3 |
| F6E | 4.45 |
| F6L | 3.47 |
| R5A | 3.53 |
| R5T | 4.17 |
| R5V | 3.58 |
| A8Q | 1.66 |
| A8N | 2.23 |
| A8S | 1.82 |
| A8F | 2.02 |
| P10D | 2.07 |
| P10N | 1.88 |
| P10V | 2.06 |
| P10E | 1.81 |
| V11D | 2.14 |
| V11L | 2.02 |

| Variant | protein stability index |
| --- | --- |
| A2F | 1.85 |
| A2H | 2.48 |
| V7Y | 3.78 |
| V7I | 2.53 |
| V7K | 3.6 |
| V7T | 3.23 |
| V7Q | 3.78 |
| D22W | 2.02 |
| D22M | 1.72 |
| P3M | 1.62 |
| P3W | 3.21 |
| P3K | 1.81 |
| P3C | 1.36 |
| F20L | 2.96 |
| F20S | 2.96 |
| F20T | 2.5 |
| F20N | 2.56 |
| F4E | 4.46 |
| F4R | 3.94 |
| F4K | 4.41 |
| F4V | 4.24 |
| F4W | 2.48 |

| Variant | protein stability index |
| --- | --- |
| F4D | 4.77 |
| A1K | 2.02 |
| A1T | 1.22 |
| A1N | 2.51 |
| A1Y | 4.23 |
| A1M | 3.08 |
| P14G | 1.76 |
| P14R | 2.51 |
| Q18K | 2.46 |
| Q18S | 2.46 |
| Q18T | 1.69 |
| Q18W | 2.44 |
| Q18L | 2.18 |
| Q18F | 1.69 |
| H17D | 2.05 |
| H17C | 2.66 |
| H17T | 2.35 |
| H17L | 2.15 |
| H17Q | 2.45 |
| H17F | 1.73 |
| R12C | 1.62 |
| R12F | 1.54 |

| Variant | protein stability index |
| --- | --- |
| R12G | 2.1 |
| R12Y | 1.74 |
| R12W | 1.9 |
| F13P | 2.74 |
| F13V | 3.13 |
| F13W | 2.33 |
| R15Y | 1.71 |
| R15C | 2.03 |
| R15H | 1.84 |
| R15T | 2.57 |
| R15L | 3.44 |
| F19S | 2.25 |
| F19G | 2.8 |
| F19A | 2.52 |
| F19T | 2.81 |
| F19P | 2.63 |
| F19C | 2.08 |
| R9Q | 3.03 |
| R9S | 2.2 |
| E21C | 1.91 |
| E21N | 2.29 |
